Data from patent US20150267232A1, “IN VIVO AND IN VITRO CARBENE INSERTION AND NITRENE TRANSFER REACTIONS CATALYZED BY HEME ENZYMES” (California Institute of Technology, priority 2012, published 2015).

Assay: N—H insertion, aniline with ethyl 2-diazopropanoate, whole cells
Format: cell-based
Settings: whole cells expressing enzyme at 2.5 μM
Experimental: The reactions shown in FIG. 37B were carried out with 10 μM catalyst loading, 20 mM aniline, 10 mM Na2S2O4 and 10 mM ethyl 2-diazopropanoate as described above. For the final entry in FIG. 37B, whole cells expressing BM3-CIS-T438S at 2.5 μM were used. See, U.S. Provisional Application No. 61/711,640 for the procedure for catalysis with whole cells.

B1: BM3-CIS-T438S: BM3-CIS + T438S (protein, listed as Bacillus megaterium)
chain: TIKEMPQPKTFGELKNLPLLNTDKPVQALMKIADELGEIFKFEAPGRVTRYLSSQRLIKEACDESRFDKNLSQALKFARDFAGDGLVTSWTHEKNWKKAHNILLPSFSQQAMKGYHAMMVDIAVQLVQKWERLNADEHIEVSEDMTRLTLDTIGLCGFNYRFNSFYRDQPHPFIISMVRALDEVMNKLQRANPDDPAYDENKRQFQEDIKVMNDLVDKIIADRKARGEQSDDLLTQMLNGKDPETGEPLDDGNIRYQIITFLIAGHEATSGLLSFALYFLVKNPHVLQKVAEEAARVLVDPVPSYKQVKQLKYVGMVLNEALRLWPTAPAFSLYAKEDTVLGGEYPLEKGDEVMVLIPQLHRDKTVWGDDVEEFRPERFENPSAIPQHAFKPFGNGQRACIGQQFALHEATLVLGMMLKHFDFEDHTNYELDIKETLSLKPKGFVVKAKSKKIPLGGIPSPSTEQSAKKVRKKAENAHNTPLLVLYGSNMGTAEGTARDLADIAMSKGFAPQVATLDSHAGNLPREGAVLIVTASYNGHPPDNAKQFVDWLDQASADEVKGVRYSVFGCGDKNWATTYQKVPAFIDETLAAKGAENIADRGEADASDDFEGTYEEWREHMWSDVAAYFNLDIENSEDNKSTLSLQFVDSAADMPLAKMHGAFSTNVVASKELQQPGSARSTRHLEIELPKEASYQEGDHLGVIPRNYEGIVNRVTARFGLDASQQIRLEAEEEKLAHLPLAKTVSVEELLQYVELQDPVTRTQLRAMAAKTVCPPHKVELEALLEKQAYKEQVLAKRLTMLELLEKYPACEMKFSEFIALLPSIRPRYYSISSSPRVDEKQASITVSVVSGEAWSGYGEYKGIASNYLAELQEGDTITCFISTPQSEFTLPKDPETPLIMVGPGTGVAPFRGFVQARKQLKEQGQSLGEAHLYFGCRSPHEDYLYQEELENAQSEGIITLHTAFSRMPNQPKTYVQHVMEQDGKKLIELLDQGAHFYICGDGSQMAPAVEATLMKSYADVHQVSEADARLWLQQLEEKGRYAKDVWAG
modifications: cytochrome P450NADPH-P-450 reductase precursor, cytochrome P450 (BM3), CYP102A1
enantioselectivity: 7% | yield of 4.5: 17%
